Data reported in paper PMC8484547, “The NAM/ATAF1/2/CUC2 transcription factor PpNAC.A59 enhances PpERF.A16 expression to promote ethylene biosynthesis during peach fruit ripening”.

B1: PpACO1 promoter probe(s) (dsDNA)
DNA 1: AGTCAAAAGCTTTCGGCGTCAAGATTCCATTG
DNA 2: CAATGGAATCTTGACGCCGAAAGCTTTTGACT
B2: PpendoPGM promoter probe(s) (dsDNA)
DNA 1: CGTAAGGTCATTACGGCGCCGTTTCCCTTTTTAATTGGCG
DNA 2: CGCCAATTAAAAAGGGAAACGGCGCCGTAATGACCTTACG
B3: PpACS1 promoter probe (dsDNA)
DNA 1: ACACCATCTCAACCATTGCCCCCACAATTGATAGCTTGC
DNA 2: GCAAGCTATCAATTGTGGGGGCAATGGTTGAGATGGTGT

Each binder was assayed against PpERF.A16::HIS (Prunus persica? (peach), UniProt A0A251PUJ2 1-382) (assay: BLI; response rises with protein concentration; BLI: PBS (1.4 mM KH2PO4, 2.7 mM KCl, 4.3 mM Na2HPO4, 137 mM NaCl, 0.02% Tween-20, pH 7.2), temperature not stated; EMSA: 5 mM MgCl2, 2.5% glycerol, 0.05% NP-40, 1 mg (so in the source) poly(dI-dC), 200 nM probe, 1 ug protein in 20 ul, 20 min, room temperature). Details: protein: recombinant; tags: HIS, trigger factor fusion (pCold-TF); label: biotin.
Chain of PpERF.A16::HIS (A0A251PUJ2 entry or part of it): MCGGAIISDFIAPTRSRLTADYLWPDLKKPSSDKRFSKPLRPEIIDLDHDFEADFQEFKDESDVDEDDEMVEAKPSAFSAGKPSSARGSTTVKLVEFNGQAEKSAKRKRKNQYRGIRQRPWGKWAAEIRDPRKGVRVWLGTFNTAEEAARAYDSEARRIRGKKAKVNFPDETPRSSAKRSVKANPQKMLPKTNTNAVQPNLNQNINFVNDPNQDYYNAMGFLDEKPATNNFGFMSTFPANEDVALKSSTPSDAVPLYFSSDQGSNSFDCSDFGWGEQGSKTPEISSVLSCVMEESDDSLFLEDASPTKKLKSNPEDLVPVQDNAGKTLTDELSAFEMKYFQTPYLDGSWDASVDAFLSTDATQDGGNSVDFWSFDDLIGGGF

**Q.** Does B1 bind?
**A.** binds

**Q.** Does B2 bind?
**A.** binds

**Q.** Does B3 bind?
**A.** binds
